PMC12153350, “Evolution of carbapenemase activity in the class C β-lactamase ADC-1” (mBio, 2025)

Tests used:
ADC-1 = target: T1, ADC-1 (Acinetobacter baumannii, UniProt Q9L4R5); experiment: X-ray crystal structure of acyl-enzyme (soak); settings: covalent; acyl-enzyme at Ser64; two binding modes, monomers A and B
T1 construct: gene ampC; expressed and purified as in earlier work (gene in pET24a(+)); dimer in asymmetric unit

[1] = system: C[C@@H](O)[C@H]1C(=O)N2C(C(=O)O)=C(SCCN=CN)C[C@H]12; experiment: purified protein; settings: 50 mM sodium phosphate, pH 7.4, 22°C
[2] = system: C[C@@H](O)[C@H]1C(=O)N2C(C(=O)O)=C(S[C@@H]3CN[C@H](C(=O)N(C)C)C3)[C@H](C)[C@H]12; experiment: purified protein; settings: 50 mM sodium phosphate, pH 7.4, 22°C
[3] = system: C[C@@H](O)[C@H]1C(=O)N2C(C(=O)O)=C(S[C@@H]3CN[C@H](C(=O)Nc4cccc(C(=O)O)c4)C3)[C@H](C)[C@H]12; experiment: purified protein; settings: 50 mM sodium phosphate, pH 7.4, 22°C
[4] = system: CC1(C)S[C@@H]2[C@H](NC(=O)[C@H](N)c3ccccc3)C(=O)N2[C@H]1C(=O)O; experiment: purified protein; settings: 50 mM sodium phosphate, pH 7.4, 22°C
[5] = system: C[C@@H](O)[C@H]1C(=O)N2C(C(=O)O)=C(S[C@@H]3CN[C@H](CNS(N)(=O)=O)C3)[C@H](C)[C@H]12; experiment: purified protein; settings: 50 mM sodium phosphate, pH 7.4, 22°C

| Molecule | X-ray crystal structure of acyl-enzyme (soak) (ADC-1) | Km [1] | kcat [1] | kcat/Km [1] | Km [2] | kcat [2] | kcat/Km [2] | kcat [3] | kcat/Km [3] | kcat [4] | kcat/Km [4] | Km [3] | Km [5] | kcat [5] | kcat/Km [5] |
| --- | --- | --- | --- | --- | --- | --- | --- | --- | --- | --- | --- | --- | --- | --- | --- |
| C[C@@H](O)[C@H]1C(=O)N2C(C(=O)O)=C(S[C@@H]3CN[C@H](C(=O)Nc4cccc(C(=O)O)c4)C3)[C@H](C)[C@H]12 [ETP, ertapenem] | The crystal structure of the ADC-1–ertapenem acyl–enzyme complex shows a clear dimorphism between the two monomers | – | – | – | – | – | – | – | – | – | – | – | – | – | – |
| ADC-1 (Acinetobacter baumannii) | – | 1.3 ± 0.2 µM | 0.001 s⁻¹ | 810 M⁻¹ s⁻¹ | 11 ± 1 µM | 0.0034 s⁻¹ | 310 M⁻¹ s⁻¹ | 0.00037 s⁻¹ | ≥ 370 M⁻¹ s⁻¹ | – | – | – | – | – | – |
| ADC-68 (Acinetobacter baumannii) | – | 1.0 ± 0.2 µM | 0.0036 ± 0.0001 s⁻¹ | 3600 ± 700 M⁻¹ s⁻¹ | 50 ± 4 µM | 0.028 ± 0.001 s⁻¹ | 550 ± 40 M⁻¹ s⁻¹ | 0.011 ± 0.001 s⁻¹ | 3300 ± 700 M⁻¹ s⁻¹ | 3.2 ± 0.1 s⁻¹ | ≥ 650000 M⁻¹ s⁻¹ | 3.5 ± 0.7 µM | 6.0 ± 0.4 µM | 0.0049 ± 0.0001 s⁻¹ | 820 ± 60 M⁻¹ s⁻¹ |
